Measurements reported in publication PMC3496014 (Journal of structural biology, 2012).

B1: His6-PfAtg8 wild type (natural protein, P. falciparum 3D7, UniProt Q8IJK2 1-124, looked up)
chain: MPSLKDEVSFENRVAETHKIRSKYPNRIPVVCERANRSNLPIIEKKKFLVPMNMLVGEFKFILHQHINQSAYGSNMKLFRERTIYLFVNNIVPKTGLLMQDLYEMYKDEDGYLYMEYSCESCLG
B2: MBP-PfAtg3 (enzyme)
chain: MSDQINVKHKIGDTCRKLYSYFKTVNNTSTFIQNGTLTPSEFVDSGDFLVYKFKTWEWQEADKDRVVPYLPENKQFLITKNVPCKQRIKDLNNIVHDLKIVDNDWLLPSYEEDNNPTDIYEYLPNSEYTINDKNIYNYEEEEEDDNCDEAIDINNFYMENNLIKEHDPASINSTSCYSKNMLHDNLMKIRTYDVSITYDKYYQTPRIWLFGYNENGDPLKSEEIFEDILSDYSYKTVTYDPHPCTGVMTASIHPCKHAEAILNVVNNWISEEKEPRHDLYLLFLLKFISGVIPTIEYDFTTDIEIPRDSNAGL

Legend:
His6-PfAtg3 = target: T1, His6-PfAtg3 (P. falciparum 3D7, UniProt C0H519 1-313); assay: SEC + other: dynamic light scattering
T1 sequence (looked up): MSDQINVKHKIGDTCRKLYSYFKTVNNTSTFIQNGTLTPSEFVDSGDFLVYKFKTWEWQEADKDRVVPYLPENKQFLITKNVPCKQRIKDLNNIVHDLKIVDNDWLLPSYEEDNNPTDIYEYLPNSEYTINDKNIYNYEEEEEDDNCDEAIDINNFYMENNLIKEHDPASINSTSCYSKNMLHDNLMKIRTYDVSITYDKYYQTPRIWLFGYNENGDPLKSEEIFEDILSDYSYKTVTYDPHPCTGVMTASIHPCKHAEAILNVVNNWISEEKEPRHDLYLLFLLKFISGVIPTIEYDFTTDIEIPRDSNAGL

His6-PfAtg8 K47E = His6-PfAtg8 K47E (P. falciparum 3D7, UniProt Q8IJK2 1-124, K47E); assay: pull-down
His6-PfAtg8 R27E = His6-PfAtg8 R27E (P. falciparum 3D7, UniProt Q8IJK2 1-124, R27E); assay: pull-down
[1] = target: His6-PfAtg8 E44A/K45S/K46A (P. falciparum 3D7, UniProt Q8IJK2 1-124, E44A | K45S | K46A); assay: pull-down
His6-PfAtg8 L49A = His6-PfAtg8 L49A (P. falciparum 3D7, UniProt Q8IJK2 1-124, L49A); assay: pull-down

Binder | stoichiometry N (His6-PfAtg3) | binding result (His6-PfAtg8 K47E) | binding result (His6-PfAtg8 R27E) | binding result [1] | binding result (His6-PfAtg8 L49A)
B1 | 1 | – | – | – | –
B2 | – | binds | binds | binds | binds
